From PMC7272653, “Human aminolevulinate synthase structure reveals a eukaryotic-specific autoinhibitory loop regulating substrate binding and product release” (Nature Communications, 2020) come the findings set out here.

The data set concerns the molecule itself. The experiment in a line: SEC + other: SAXS; in solution; SAXS coupled to a Shodex KW403-4F size exclusion column; 300 mM NaCl, 25 mM Hepes 7.5, 1 mM TCEP, 2% glycerol, 1% sucrose, 20 °C.

B1: hsALAS2_(ΔN142ΔC545) (catalytic domain alone, aa 143–545) (domain or fragment, human, UniProt P22557 143-545, looked up)
chain: FSYDQFFRDKIMEKKQDHTYRVFKTVNRWADAYPFAQHFSEASVASKDVSVWCSNDYLGMSRHPQVLQATQETLQRHGAGAGGTRNISGTSKFHVELEQELAELHQKDSALLFSSCFVANDSTLFTLAKILPGCEIYSDAGNHASMIQGIRNSGAAKFVFRHNDPDHLKKLLEKSNPKIPKIVAFETVHSMDGAICPLEELCDVSHQYGALTFVDEVHAVGLYGSRGAGIGERDGIMHKIDIISGTLGKAFGCVGGYIASTRDLVDMVRSYAAGFIFTTSLPPMVLSGALESVRLLKGEEGQALRRAHQRNVKHMRQLLMDRGLPVIPCPSHIIPIRVGNAALNSKLCDLLLSKHGIYVQAINYPTVPRGEELLRLAPSPHHSPQMMEDFVEKLLLAWTAVGL
notes: human ALAS2, catalytic domain alone, aa 143–545 (Ct-extension omitted); also called hsALAS2_(ΔN142ΔC545) WT; source: constructs cloned into pFB-LIC-Bse (Sf9) and pNIC28-Bsa4; purified (Ni-NTA, Superdex 200)
With B1, the “stoichiometry N” value is 2.

B2: hsALAS2_(ΔN142) (human erythroid-specific 5′-aminolevulinate synthase, aa 143–587) (enzyme, UniProt P22557 143-587, looked up)
chain: FSYDQFFRDKIMEKKQDHTYRVFKTVNRWADAYPFAQHFSEASVASKDVSVWCSNDYLGMSRHPQVLQATQETLQRHGAGAGGTRNISGTSKFHVELEQELAELHQKDSALLFSSCFVANDSTLFTLAKILPGCEIYSDAGNHASMIQGIRNSGAAKFVFRHNDPDHLKKLLEKSNPKIPKIVAFETVHSMDGAICPLEELCDVSHQYGALTFVDEVHAVGLYGSRGAGIGERDGIMHKIDIISGTLGKAFGCVGGYIASTRDLVDMVRSYAAGFIFTTSLPPMVLSGALESVRLLKGEEGQALRRAHQRNVKHMRQLLMDRGLPVIPCPSHIIPIRVGNAALNSKLCDLLLSKHGIYVQAINYPTVPRGEELLRLAPSPHHSPQMMEDFVEKLLLAWTAVGLPLQDVSVAACNFCRRPVHFELMSEWERSYFGNMGPQYVTTYA
notes: human ALAS2 (5′-aminolevulinate synthase, erythroid-specific), aa 143–587: catalytic core and Ct-extension; Before crystallisation it was made non-covalent with hydroxylamine; The His6 tag is TEV-cleavable and was removed 'where applicable'; also called hsALAS2_(ΔN142) WT; source: baculovirus-infected Sf9 insect cells, purified (Ni-NTA, Superdex 200)
Take B2: the “stoichiometry N” value turned out to be 2.

The stoichiometry N is the number of molecules, sites or subunits per partner or assembly.
